Tests used:
Format in all cases: biochemical
[1] = GC-FID determination of reaction products of terpene synthases from FPP with magnesium or manganese
Method: Enzyme assays for all recombinant proteins were done in triplicate using the GC vial method described by O'Maille et al. (Anal. Biochem. 335:[…] (2004). For enzyme assays where only product identification was needed, 10 μg of protein was used in a final volume of 500 μL of reaction buffer (25 mM HEPES, 10% glycerol, 5 mM DTT and 10 mM of either Mg^2+ or Mn^2+. Substrates (FPP and GPP) were added to a final reaction concentration of 100 μM. Vials were overlaid with 500 μL of hexane to trap volatile products and incubated at 30° C. for 2 h. Mixtures were vortexed for 1 min to extract all volatiles and the vials were centrifuged to separate the organic layer.
Product mixtures were analysed by GC-MS in scan mode for product identification. A standard containing the three santalenes and α-trans-bergamotene was prepared by flash chromatography of 2 mL of neat S. album oil over silica and eluted in hexane. A final yield of 25 mg was resuspended in EtOAc and purity was confirmed by GC-FID with conditions described below. All mass spectra were compared to the NIST 2005 library and the literature. Retention indices were determined for all compounds using an n-alkane standard and compared to the literature (R. P. Adams, “Identification of essential oil components by gas chromatography/mass spectrometry,” Allured Publishing Corporation, Carol Stream, Ill. (1995)).
(§1) GC-FID was performed on a Shimadzu GC2010 with a 30 m 0.25 mm ID, 0.25 μm film DB-WAX column with He as the carrier gas. Splitless injection (2 μL) was used for all analyses. Conditions were as follows: injector 200° C., detector 250° C., column flow rate 1 mL/min. Oven program: 40° C. for 3 min, then 8° C./min to 180° C., held 5 min, then 10° C./min to 220° C., held 10 min. Needle height was adjusted to only draw from the upper organic layer of all sample vials. GC-MS was performed on a Shimadzu GC2010 with the same DB-WAX column and using He as the carrier gas. Conditions were as follows: injector 200° C., MS interface 240° C., ion source 200° C. Oven program: 40° C. for 3 min, then 8° C./min to 180° C., held 5 min, then 10° C./min to 220° C., held 10 min. Solvent cut time was set to 5 min. For product identification, total ion monitoring was used, scanning from m/z 45 to m/z 300. For kinetic assays, single ion monitoring of the sesquiterpene base ions m/z 91, 93 and 94 were used. Likewise monoterpene base ions (m/z 69, 71 and 93) were monitored. An internal standard (isobutyl benzene, 30 μM) was added to the hexane used to overlay each reaction. Detector response factors were calculated based on the santalene standard prepared earlier and used to determine the product concentrations for kinetic analysis.

[2] = Steady-state enzyme kinetic assays
Method: For determination of steady-state enzyme kinetic constants, conditions were as described previously except the enzyme concentration was kept at 10 nM. Substrate concentrations ranged from 1 uM to 100 uM, and reactions were incubated at 30° C. for exactly 5 mins. Reactions were quenched by the addition of 500 μL 0.5 M EDTA, pH 8.0 and vortexed as above.
as §1

[3] = GC-FID determination of reaction products of terpene synthases from FPP with magnesium or manganese; remark: listed apart in the source

B1: SauSSy: santalene synthase from Santalum austrocaledonicum, gene SEQ ID NO:3, protein SEQ ID NO:4 (protein, listed as Santalum austrocaledonicum)
chain: MDSSTATAMTAPFIDPTDHVNLKTDTDASENRRMGNYKPSIWNYDFLQSLATHHNIVEERHLKLAEKLKGQVKFMFGAPMEPLAKLELVDVVQRLGLNHRFETEIKEALFSIYKDESNGWWFGHLHATSLRFRLLRQCGLFIPQDVFKTFQNKTGEFDMKLCDNVKGLLSLYEASYLGWKGENILDEAKAFATKYLKSAWENISEKWLAKRVKHALALPLHWRVPRIEARWFIEAYEQEANMNPTLLKLAKLDFNMVQSIHQKEIGELARWWVTTGLDKLAFARNNLLQSYMWSCAIASDPKFKLARETIVEIGSVLTVVDDAYDVYGSMDELDLYTSSVERWSCVEIDKLPNTLKLIFMSMFNKTNEVGLRVQHERGYNSIPTFIKAWVQQCKSYQKEARWFHGGHTPPLEEYSLNGLVSIGFPLLLITGYVAIAENEAALDKVHPLPDLLHYSSLLSRLINDIGTSPDEMARGDNLKSIHCYMNGTGASEEVAREHIKGVIEENWKILNQCCFDQSQFQEPFITFNLNSVRGSHFFYEFGDGFGVTDSWTKVDMKSVLIDPIPLGEE
modifications: SauSSy Protein
[1]; FPP Mg, mean
  E-β-farnesene among reaction products (GC-FID): 1.4
  Z-β-farnesene among reaction products (GC-FID): 0.6
  epi-β-santalene among reaction products (GC-FID): 4.8
  α-E-bergamotene among reaction products (GC-FID): 14.5
  α-santalene among reaction products (GC-FID): 51.3
  β-santalene among reaction products (GC-FID): 27.4
[1]; FPP Mg, replicate 1
  E-β-farnesene among reaction products (GC-FID): 1.5
  Z-β-farnesene among reaction products (GC-FID): 0.6
  epi-β-santalene among reaction products (GC-FID): 4.7
  α-E-bergamotene among reaction products (GC-FID): 13.8
  α-santalene among reaction products (GC-FID): 51.7
  β-santalene among reaction products (GC-FID): 27.8
[1]; FPP Mg, replicate 2
  E-β-farnesene among reaction products (GC-FID): 1.3
  Z-β-farnesene among reaction products (GC-FID): 0.6
  epi-β-santalene among reaction products (GC-FID): 4.6
  α-E-bergamotene among reaction products (GC-FID): 14.6
  α-santalene among reaction products (GC-FID): 51.5
  β-santalene among reaction products (GC-FID): 27.5
[1]; FPP Mg, replicate 3
  E-β-farnesene among reaction products (GC-FID): 1.5
  Z-β-farnesene among reaction products (GC-FID): 0.5
  epi-β-santalene among reaction products (GC-FID): 5.1
  α-E-bergamotene among reaction products (GC-FID): 15.2
  α-santalene among reaction products (GC-FID): 50.7
  β-santalene among reaction products (GC-FID): 27.0
[1]; FPP Mn, mean
  E-β-farnesene among reaction products (GC-FID): 8.5
  Z-β-farnesene among reaction products (GC-FID): 0.9
  epi-β-santalene among reaction products (GC-FID): 1.2
  α-E-bergamotene among reaction products (GC-FID): 73.6
  α-santalene among reaction products (GC-FID): 10.2
  β-santalene among reaction products (GC-FID): 5.3
[1]; FPP Mn, replicate 1
  E-β-farnesene among reaction products (GC-FID): 8.3
  Z-β-farnesene among reaction products (GC-FID): 0.9
  epi-β-santalene among reaction products (GC-FID): 1.4
  α-E-bergamotene among reaction products (GC-FID): 72.5
  α-santalene among reaction products (GC-FID): 10.3
  β-santalene among reaction products (GC-FID): 5.3
[1]; FPP Mn, replicate 2
  E-β-farnesene among reaction products (GC-FID): 8.5
  Z-β-farnesene among reaction products (GC-FID): 0.9
  epi-β-santalene among reaction products (GC-FID): 0.8
  α-E-bergamotene among reaction products (GC-FID): 73.8
  α-santalene among reaction products (GC-FID): 10.5
  β-santalene among reaction products (GC-FID): 5.5
[1]; FPP Mn, replicate 3
  E-β-farnesene among reaction products (GC-FID): 8.6
  Z-β-farnesene among reaction products (GC-FID): 0.9
  epi-β-santalene among reaction products (GC-FID): 1.2
  α-E-bergamotene among reaction products (GC-FID): 74.4
  α-santalene among reaction products (GC-FID): 9.7
  β-santalene among reaction products (GC-FID): 5.1
[1]; GC-FID
  Relative % composition in oil produced by enzyme: E-α-bergamotol: 14.5%
  Relative % composition in oil produced by enzyme: β-santalol: 27.4%
[2]; FPP
  Kcat: 0.0277 s⁻¹
[2]; assays using FPP
  Vmax: 0.54 µM/min
[3]
  Relative % composition in oil produced by enzyme: epi-β-santalol: 4.8%
  Relative % composition in oil produced by enzyme: α-santalol: 51.3%

Reference: patent publication US9260728B2, “Terpene synthases from Santalum” (UNIVERSITY OF BRITISH COLUMBIA, priority 2009, dated 2016)
